# Data published in PMC12246617, “Cryo-EM structures reveal the PP2A–B55α and Eya3 interaction that can be disrupted by a peptide inhibitor” (The Journal of Biological Chemistry, 2025).
# Columns and labels:
# B55α (His-B55) = assay: Microscale thermophoresis (MST) binding of Eya3 to labeled His-B55; design: species or system human; conditions: fluorescently labeled His-B55, vs Eya3 WT
# Excerpt: We expressed and purified Eya3 protein from Escherichia coli and the His-B55α subunit from insect cells (Fig. S1). In the remainder of the article, we will use B55 to represent B55α for simplicity and PP2A–B55 to represent the holoenzyme containing the A, B55, and C subunits. We labeled His-B55 with the RED–Tris–NTA dye and carried out microscale thermophoresis (MST) experiments with increasing concentrations of Eya3.
# The modeled Eya3 peptide (residues 65–86) interacts mostly with residues on blades 3 and 4 of the β-propeller on the B55 surface (including residues on the β2D and β3A loop, β3B and β3C loop, and β3D and β4A loop) and with residues on the α1 and α2 helix positioned above blade 5, as well as the α2 and β6A loop (Fig. 1F). In particular, residue H79^Eya3 forms pi–pi or pi–cation stacking with H179^B55 and a hydrogen bond with D197^B55 (Fig. 2A). […] Furthermore, Y77^Eya3 forms a hydrogen bond with the main chain carbonyl of L225^B55, and K75^Eya3 forms another hydrogen bond with Y337^B55 (Fig. 2, B and C). […] We expressed and purified Eya3 K75A, Y77A, and H79A mutant proteins from E. coli and carried out MST experiments with fluorescently labeled His-B55. […] While we were working on the structure of PP2A–B55 + Eya3, Padi et al. ([84]) published the cryo-EM structure of PP2A–B55 in complex with an Eya3 peptide (residues 62–108) on bioRxiv.
# FLAG-hB55, FLAG-hEya3, GFP, and GFP-B55i were cloned into the pCAG vector; (GST)-mEya3 was cloned into pGEX-6p1; His-hB56γ1 was cloned into pGEX-4T1; and His-hB55 was cloned in pFASTbac, all using the NEBuilder HiFi DNA Assembly Cloning Kit (New England Biolabs). h and m represent human and mouse proteins, respectively.
# GST-mEya3 and mutants were expressed in BL21 cells. Cells were lysed in lysis buffer containing 50 mM Tris (pH 7.5), 250 mM NaCl, 5% glycerol, 1 mM DTT, and protease inhibitor cocktail (PIC; Thermo Scientific). Lysis was done in ice with sonication using 4 × 45 s pulses with 2-min off periods. NaCl was brought up to 0.5 M using 5 M NaCl, and the lysate was centrifuged for 40 min at 18,000g. Supernatant was gravity-flown over glutathione resin twice. Resin was washed with 100 ml of lysis buffer. GST was cleaved with PreScission protease and eluted into lysis buffer. Eluates were pooled and concentrated with Amicon Ultra Centrifugal filters. Concentrated protein was separated on a pre-equilibrated S200 column for size-exclusion chromatography. Peaks were combined, concentrated again, aliquoted, and stored at −80 °C.
# His-B55 was expressed in Hi5 cells. […]
# His-B55 or His-B56γ1 labeled with […] (NanoTemper) was added to serial dilutions of mEya3 in PBS with 0.05% Tween-20. The samples were then read with a Monolith NT.115^Pico (NanoTemper) according to the manufacturer’s instructions.
# [1] = tested on: apparent S/T phosphatase activity of Eya3; conditions: Eya3 mutant; cited from earlier work
# Excerpt: The modeled Eya3 peptide (residues 65–86) interacts mostly with residues on blades 3 and 4 of the β-propeller on the B55 surface (including residues on the β2D and β3A loop, β3B and β3C loop, and β3D and β4A loop) and with residues on the α1 and α2 helix positioned above blade 5, as well as the α2 and β6A loop (Fig. 1F). In particular, residue H79^Eya3 forms pi–pi or pi–cation stacking with H179^B55 and a hydrogen bond with D197^B55 (Fig. 2A). […] Furthermore, Y77^Eya3 forms a hydrogen bon ...
# PP2A–B55 [2] = conditions: 6,8-difluoro-4-methylumbelliferyl phosphate substrate; cited from earlier work
# Excerpt: It is not surprising that ARPP19 and FAM122A inhibit the PP2A–B55 phosphatase activity since these two proteins bind on the surface of both B55 and C subunits, blocking access to the active site on C subunit.
# PP2A–B55 [3] = assay: Fluorescent phosphatase assay with OMFP substrate; format: biochemical, human; conditions: three independent biological replicates
# Method: We noted that the buffer condition we used in our assay (50 mM Tris [pH 7.5], 50 mM NaCl, 5 mM MgCl2, and 0.1 mM EDTA) is substantially different from that used by Padi et al. (30 mM Hepes [pH 7.0], 150 mM NaCl, 1 mM MnCl2, 1 mM DTT, 0.01% Triton X-100, and 0.1 mg/ml bovine serum albumin) ([46], [84]).
# Figure 5 Eya3 NTD and B55i inhibit the phosphatase activity of PP2A–B55.A, the phosphatase activity of PP2A–B55 in the absence and presence of Eya3 NTD in a fluorescent phosphatase assay using OMFP as a substrate under our previous buffer conditions ([46]). […] RFU, relative fluorescence units; NTD, N-terminal domain; OMFP, 3-O-methylfluorescein phosphate. […]
# FLAG-PP2A–B55 was expressed and purified from cells transfected with pCAG-FLAG-B55, using the same method as FLAG-hEya3. […] Proteins were analyzed by SDS-PAGE, and fractions containing the PP2A–B55α holoenzyme were pooled, concentrated, aliquoted, and stored at −80 °C.
# PP2A–B55 holoenzyme (25 nM) with or without 1 μM Eya3 NTD in 30 mM Hepes (pH 7.0), 150 mM NaCl, 1 mM MnCl2, 1 mM DTT, 0.01% Triton X-100, 0.1 mg/ml bovine serum albumin was incubated at room temperature for 10 min. […] Fluorescent OMFP, corresponding to phosphatase activity, was read using a BioTek Synergy H1 plate reader (excitation at 485 nm and emission at 515 nm).
Molecule,binding between Eya3 and B55 (mutants) (B55α (His-B55)),phosphatase activity of PP2A–B55 in vitro (PP2A–B55 [2]),other results
"K75A: Eya3 K75A mutant protein from E. coli (protein, UniProt Q99504 1-573, looked up, variant K75A) Protein phosphatase EYA3: MEEEQDLPEQPVKKAKMQESGEQTISQVSNPDVSDQKPETSSLASNLPMSEEIMTCTDYIPRSSNDYTSQMYSAAPYAHILSVPVSETAYPGQTQYQTLQQTQPYAVYPQATQTYGLPPFGALWPGMKPESGLIQTPSPSQHSVLTCTTGLTTSQPSPAHYSYPIQASSTNASLISTSSTIANIPAAAVASISNQDYPTYTILGQNQYQACYPSSSFGVTGQTNSDAESTTLAATTYQSEKPSVMAPAPAAQRLSSGDPSTSPSLSQTTPSKDTDDQSRKNMTSKNRGKRKADATSSQDSELERVFLWDLDETIIIFHSLLTGSYAQKYGKDPTVVIGSGLTMEEMIFEVADTHLFFNDLEECDQVHVEDVASDDNGQDLSNYSFSTDGFSGSGGSGSHGSSVGVQGGVDWMRKLAFRYRKVREIYDKHKSNVGGLLSPQRKEALQRLRAEIEVLTDSWLGTALKSLLLIQSRKNCVNVLITTTQLVPALAKVLLYGLGEIFPIENIYSATKIGKESCFERIVSRFGKKVTYVVIGDGRDEEIAAKQHNMPFWRITNHGDLVSLHQALELDFL",significantly reduce the binding between Eya3 and B55,–,–
"Y77A: Eya3 Y77A mutant protein from E. coli (protein, UniProt Q99504 1-573, looked up, variant Y77A) Protein phosphatase EYA3: MEEEQDLPEQPVKKAKMQESGEQTISQVSNPDVSDQKPETSSLASNLPMSEEIMTCTDYIPRSSNDYTSQMYSAKPAAHILSVPVSETAYPGQTQYQTLQQTQPYAVYPQATQTYGLPPFGALWPGMKPESGLIQTPSPSQHSVLTCTTGLTTSQPSPAHYSYPIQASSTNASLISTSSTIANIPAAAVASISNQDYPTYTILGQNQYQACYPSSSFGVTGQTNSDAESTTLAATTYQSEKPSVMAPAPAAQRLSSGDPSTSPSLSQTTPSKDTDDQSRKNMTSKNRGKRKADATSSQDSELERVFLWDLDETIIIFHSLLTGSYAQKYGKDPTVVIGSGLTMEEMIFEVADTHLFFNDLEECDQVHVEDVASDDNGQDLSNYSFSTDGFSGSGGSGSHGSSVGVQGGVDWMRKLAFRYRKVREIYDKHKSNVGGLLSPQRKEALQRLRAEIEVLTDSWLGTALKSLLLIQSRKNCVNVLITTTQLVPALAKVLLYGLGEIFPIENIYSATKIGKESCFERIVSRFGKKVTYVVIGDGRDEEIAAKQHNMPFWRITNHGDLVSLHQALELDFL",significantly reduce the binding between Eya3 and B55,–,apparent S/T phosphatase activity of Eya3 [1]: abolish the apparent S/T phosphatase activity of Eya3
"ARPP19: a protein inhibitor that binds to both the B and C subunits (protein, UniProt P56211 2-112, looked up) cAMP-regulated phosphoprotein …: SAEVPEAASAEEQKEMEDKVTSPEKAEEAKLKARYPHLGQKPGGSDFLRKRLQKGQKYFDSGDYNMAKAKMKNKQLPTAAPDKTEVTGDHIPTPQDLPQRKPSLVASKLAG",–,inhibit the phosphatase activity of PP2A–B55 in vitro,–
"FAM122A: a protein inhibitor that binds to both the B and C subunits (protein, UniProt Q96E09 1-287, looked up) PPP2R1A-PPP2R2A-interacting …: MAQEKMELDLELPPGTGGSPAEGGGSGGGGGLRRSNSAPLIHGLSDTSPVFQAEAPSARRNSTTFPSRHGLLLPASPVRMHSSRLHQIKQEEGMDLINRETVHEREVQTAMQISHSWEESFSLSDNDVEKSASPKRIDFIPVSPAPSPTRGIGKQCFSPSLQSFVSSNGLPPSPIPSPTTRFTTRRSQSPINCIRPSVLGPLKRKCEMETEYQPKRFFQGITNMLSSDVAQLSDPGVCVSSDTLDGNSSSAGSSCNSPAKVSTTTDSPVSPAQAASPFIPLDELSSK",–,inhibit the phosphatase activity of PP2A–B55 in vitro,–
"Eya3 NTD: Eya3 N-terminal domain protein (NTD, residues 1–250) (protein, UniProt Q99504 1-250, looked up, fragment) MEEEQDLPEQPVKKAKMQESGEQTISQVSNPDVSDQKPETSSLASNLPMSEEIMTCTDYIPRSSNDYTSQMYSAKPYAHILSVPVSETAYPGQTQYQTLQQTQPYAVYPQATQTYGLPPFGALWPGMKPESGLIQTPSPSQHSVLTCTTGLTTSQPSPAHYSYPIQASSTNASLISTSSTIANIPAAAVASISNQDYPTYTILGQNQYQACYPSSSFGVTGQTNSDAESTTLAATTYQSEKPSVMAPAPA",–,–,"phosphatase activity of PP2A–B55 (Padi et al. buffer) (PP2A–B55 [3]; 25 nM PP2A–B55, 1 μM Eya3 NTD, 30 mM Hepes (pH 7.0), 150 mM NaCl, 1 mM MnCl2, 1 mM DTT, 0.01% Triton X-100, 0.1 mg/ml BSA, room temperature 10 min, then 37 °C 30 min, ex 485/em 515 nm): inhibits the phosphatase activity of PP2A–B55; phosphatase activity of PP2A–B55 (previous buffer) (PP2A–B55 [3]; buffer 50 mM Tris [pH 7.5], 50 mM NaCl, 5 mM MgCl2, 0.1 mM EDTA, with vs without Eya3 NTD): increases the phosphatase activity of PP2A–B55"
